Results from patent publication US20090136475A1 (FRAUNHOFER GESELLSCHAFT ZUR FORDERUNG DER ANGEWANDTEN …, published 2009).

T1: CD30 molecule on the Hodgkin-derived CD30-positive cell line L540Cy (UniProt P28908 19-595, limits assumed)
T1 construct: whole, on cells; the cell lines are human-derived; also called CD30-positive cells
T1 sequence (looked up): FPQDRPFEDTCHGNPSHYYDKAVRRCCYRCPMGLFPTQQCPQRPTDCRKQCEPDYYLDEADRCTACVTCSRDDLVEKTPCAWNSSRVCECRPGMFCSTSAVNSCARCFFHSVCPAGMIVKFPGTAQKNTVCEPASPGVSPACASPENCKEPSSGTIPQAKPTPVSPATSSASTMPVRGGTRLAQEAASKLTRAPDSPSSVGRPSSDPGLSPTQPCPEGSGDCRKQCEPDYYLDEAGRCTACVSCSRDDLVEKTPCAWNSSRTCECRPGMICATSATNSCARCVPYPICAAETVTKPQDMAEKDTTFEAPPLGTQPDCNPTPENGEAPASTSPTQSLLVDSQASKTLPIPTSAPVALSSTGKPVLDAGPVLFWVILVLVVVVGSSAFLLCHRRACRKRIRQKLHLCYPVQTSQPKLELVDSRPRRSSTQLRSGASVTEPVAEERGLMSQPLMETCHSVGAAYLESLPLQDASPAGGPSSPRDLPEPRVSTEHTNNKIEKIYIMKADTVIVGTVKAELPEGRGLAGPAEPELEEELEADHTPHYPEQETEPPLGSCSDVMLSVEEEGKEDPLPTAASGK


What was measured:
[1] = biological target: CD30 molecule on the Hodgkin-derived CD30-positive cell line L540Cy (UniProt P28908); experiment: cell-based or functional assay
[2] = biological target: T1, CD30 molecule on the Hodgkin-derived …; experiment: flow cytometry on L540Cy cells, detection by anti-penta-His and FITC goat-anti-mouse IgG
Description: Cell binding activity of the recombinant complexes (immunokinases) expressed in E. coli BL21 Star™ (DE3) was evaluated using a FACSCalibur flow cytometry instrument and CellQuest software (Becton Dickinson, Heidelberg, Germany). Cells were stained with recombinant protein as described (25). Briefly, ten thousand events were collected for each sample, and analyses of Intact cells were performed using appropriate scatter gates to exclude cellular debris and aggregates. 5×10⁵ cells were incubated for 1 h on ice with 50 μl of bacterial protein extract at a concentration of 30-40 μg/ml or 100 μl of the immunokuinase containing supernatants respectively. The cells were washed with PBS buffer containing 0.2% w/v BSA and 0.05% w/v sodium azide (PBA) and then incubated for 30 min with anti-penta-His moab (Qiagen) diluted 1:2 in PBA buffer. Cells were washed and incubated with fluorescein-iso-thiocyanate (FITC)-labeled goat-anti-mouse IgG (DAKO Diagnostica, Hamburg, Germany) for 1 h at 4° C. After a final wash, the cells were treated with 2 μl 6.25 mg/ml propidiumiodide and subsequently analyzed on a FACScalibur (Becton Dickison, Heidelberg, Germany).

Row | binding result [2] | Molecule | calculated median IC50, growth inhibition of L540Cy cells, XTT-based colorimetric assay [1] [µg/mL]
1 |  | recombinant complex (immunokinase) pMS-(L-DAPk2-Ki-4)-III/G, protein L-DAPk2-Ki-4-MH | 0.004 to 0.035
2 | binds | recombinant complex (immunokinase) pMT-Ki-4(scFv)-eEF-2K (other, Single-chain fusion: pelB signal peptide, enterokinase-cleavable His10 tag, anti-CD30 Ki-4 scFv, eukaryotic elongation factor-2 kinase; It was expressed in the periplasm of E. coli BL21 Star (DE3) and purified by IMAC and SEC) MGHHHHHHHHHHSSGHIDDDDKHMKLMAQPAMAQVKLQESGTELAKPGAAVKMSCKASGYTFTDYWMHWVKQRPGQGLEWIGYINPNTAYTDYNQKFKDKATLTADKSSSTAYMQLRSLTSEDSAVYYCAKKTTQTTWGFPFWGQGTTVTVSSGGGGSGGGGSGGGGSDIVLTQSPKSMAMSVGERVTLSCKASENVDSFVSWYQQKPGQSPKLLIYGASNRYTGVPDRFAGSGSGRDFTLTISSVQAEDLADYHCGQNYRYPLTFGAGTKLEIKRAAAELGGGGSMADEDLIFRLEGVDGGQSPRAGHDGDSDGDSDDEEGYFICPITDDPSSNQNVNSKVNKYYSNLTKSERYSSSGSPANSFHFKEAWKHAIQKAKHMPDPWAEFHLEDIATERATRHRYNAVTGEWLDDEVLIKMASQPFGRGAMRECFRTKKLSNFLHAQQWKGASNYVAKRYIEPVDRDVYFEDVRLQMEAKLWGEEYNRHKPPKQVDIMQMCIIELKDRPGKPLFHLEHYIEGKYIKYNSNSGFVRDDNIRLTPQAFSHFTFERSGHQLIVVDIQGVGDLYTDPQIHTETGTDFGDGNLGVRGMALFFYSHACNRICESMGLAPFDLSPRERDAVNQNTKLLQSAKTILRGTEEKCGSPRVRTLSGSRPPLLRPLSENSGDENMSDVTFDSLPSSPSSATPHSQKLDHLHWPVFSDLDNMASRDHDHLDNHRESENSGDSGYPSEKRGELDDPEPREHGHSYSNRKYESDEDSLGSSGRVCVEKWNLLNSSRLHLPRASAVALEVQRLNALDLEKKIGKSILGKVHLAMVRYHEGGRFCEKGEEWDQESAVFHLEHAANLGELEAIVGLGLMYSQLPHHILADVSLKETEENKTKGFDYLLKAAEAGDRQSMILVARAFDSGQNLSPDRCQDWLEALHWYNTALEMTDCDEGGEYDGMQDEPRYMMLAREAEMLFTGGYGLEKDPQRSGDLYTQAAEAAMEAMKGRLANQYYQKAEEAWAQMEE | 
